This passage reports EC50, Max MFI and OD450 nm results from patent US20260116991A1.

Positions count from the first letter of the chain named.

B1: GC33 IgG (antibody, V domains shown)
VH: QVQLVQSGAEVKKPGASVKVSCKASGYTFTDYEMHWVRQAPGQGLEWMGALDPKTGDTAYSQKFKGRVTLTADKSTSTAYMELSSLTSEDTAVYYCTRFYSYTYWGQGTLVTVSS
VL: DVVMTQSPLSLPVTPGEPASISCRSSQSLVHSNRNTYLHWYLQKPGQSPQLLIYKVSNRFSGVPDRFSGSGSGTDFTLKISRVEAEDVGVYYCSQNTHVPPTFGQGTKLEIKR
B2: hAb001H1aL1a (antibody, human IgG1, V domains shown)
VH: EVQLVESGGGLVQPGGSLRLSCAASGFSFNTNAMNWVRQAPGKGLEWVGRIRSKSNNYATYYADSVKGRFTISRDDSKNSLYLQMNSLKTEDTAVYYCVRDGYYVLFAYWGQGTLVTVSS
VL: DIVMTQTPLSLPVTPGEPASISCRFSQSIVNSDGNTYLEWFLQKPGQSPQLLIYKVSNRFSGVPDRFSGSGSGTDFTLKISRVEAEDVGVYYCFQGSHVPFTFGQGTKLEIK
B3: hAb006LH3L1d (antibody, human IgG1, V domains shown)
VH: EVQLVQSGAEVKKPGSSVKVSCKASGYTFTDYEIHWVRQAPGQGLEWMGAIDPKTGNTAYNQKFMGRVTLTADKSTSTAYMELSSLRSEDTAVYYCTRYFSFAYWGQGTLVTVSS
VL: B2 VL with F25S, S28T, I29F, N31H, D33N, G34S, E39Q, F41Y, F101Y
B4: hAb001H2L1 (antibody, human IgG1, V domains shown)
VH: B2 VH with G68D, N79S
VL: B2 VL with D33N
B5: hAb007LH1L1d (antibody, human IgG1, V domains shown)
VH: B3 VH with T30S, I34M, A50T, K54E, M65K, L70I, Y99P, F100Y, F102L, A103T
VL: B2 VL with F25S, I29F, N31H, D33N, G34S, N35D, E39Q, F41Y, F101Y
B6: hAb006LH3L1e (antibody, human IgG1, V domains shown)
VH: B3 VH
VL: B2 VL with F25S, S28T, I29F, N31H, D33N, G34V, E39Q, F41Y, F101Y
B7: hAb001H1L1 (antibody, human IgG1, V domains shown)
VH: B2 VH with G68D
VL: B2 VL with D33N
B8: hAb001H1L1a (antibody, human IgG1, V domains shown)
VH: B2 VH with G68D
VL: B2 VL
B9: hAb007LH1L1e (antibody, human IgG1, V domains shown)
VH: B3 VH with T30S, I34M, A50T, K54E, M65K, L70I, Y99P, F100Y, F102L, A103T
VL: B2 VL with F25S, I29F, N31H, D33N, G34V, N35D, E39Q, F41Y, F101Y
B10: hAb001H2L1a (antibody, human IgG1, V domains shown)
VH: B2 VH with G68D, N79S
VL: B2 VL
B11: hAb003LH1L1 (antibody, human IgG1, V domains shown)
VH: B3 VH with T30S, I34M, A50T, K54E, N61T, G66D, L70I, Y99G, F100Y, A103T
VL: B2 VL with F25S, S28N, N31H, D33N, E39Q, F41Y, Y54F
B12: hAb006LH2L1 (antibody, human IgG1, V domains shown)
VH: B3 VH with L70I
VL: B2 VL with F25S, S28T, I29F, N31H, D33N, E39Q, F41Y, F101Y
B13: hAb006LH3L1a (antibody, human IgG1, V domains shown)
VH: B3 VH
VL: B2 VL with F25S, S28T, I29F, N31H, E39Q, F41Y, F101Y
B14: hAb006LH1L1b (antibody, human IgG1, V domains shown)
VH: B3 VH with T30S, L70I
VL: B2 VL with F25S, S28T, I29F, N31H, D33N, G34A, E39Q, F41Y, F101Y
B15: hAb003LH1L1b (antibody, human IgG1, V domains shown)
VH: B3 VH with T30S, I34M, A50T, K54E, N61T, G66D, L70I, Y99G, F100Y, A103T
VL: B2 VL with F25S, S28N, N31H, D33N, G34R, E39Q, F41Y, Y54F
B16: hAb006LH2L1a (antibody, human IgG1, V domains shown)
VH: B3 VH with L70I
VL: B2 VL with F25S, S28T, I29F, N31H, E39Q, F41Y, F101Y
B17: hAb007LH1L1a (antibody, human IgG1, V domains shown)
VH: B3 VH with T30S, I34M, A50T, K54E, M65K, L70I, Y99P, F100Y, F102L, A103T
VL: B2 VL with F25S, I29F, N31H, N35D, E39Q, F41Y, F101Y
B18: hAb007LH1L1 (antibody, human IgG1, V domains shown)
VH: B3 VH with T30S, I34M, A50T, K54E, M65K, L70I, Y99P, F100Y, F102L, A103T
VL: B2 VL with F25S, I29F, N31H, D33N, N35D, E39Q, F41Y, F101Y
B19: hAb006LH2L1b (antibody, human IgG1, V domains shown)
VH: B3 VH with L70I
VL: B2 VL with F25S, S28T, I29F, N31H, D33N, G34A, E39Q, F41Y, F101Y
B20: hAb006LH1L1a (antibody, human IgG1, V domains shown)
VH: B3 VH with T30S, L70I
VL: B2 VL with F25S, S28T, I29F, N31H, E39Q, F41Y, F101Y
B21: hAb005LH2L1b (antibody, human IgG1, V domains shown)
VH: EVQLVQSGAEVKKPGASVKVSCKASGYTFTDYEMHWVRQAPGQGLEWMGAIDPETGNTAYIQKFKGRVTLTTDKSTSTAYMELRSLRSDDTAVYYCTRFYSYSHWGQGTTVTVSS
VL: DIVMTQTPLSLPVTPGEPASISCRSSQSLVHSNRNTYLHWYLQKPGQSPQLLIYKVSNRFSGVPDRFSGSGSGTDFTLKISRVEAEDVGVYYCSQNTHVPPTFGGGTKVEIK

One assay concerns the target monkey GPC3 on HEK293T-monkey GPC3 cells (monkey). The experiment in a line: FACS on HEK293T-monkey GPC3 cells.
In the case of B1, the EC50 was 5.96 nM and the Max MFI came to 87000 MFI.

B2: the EC50 was determined as 1.68 nM and the Max MFI came out at 27200 MFI.

Take B3: the EC50 was found to be 6.16 nM and the Max MFI was found to be 84800 MFI.

B4 came in with an EC50 of 1.08 nM and a Max MFI of 33300 MFI.

Turning to B5, the concentration for a half-maximal effect (EC50) was found to be 13.6 nM and the Max MFI stood at 80400 MFI.

B6 yielded an EC50 of 6.54 nM and a Max MFI of 82900 MFI.

The molecule B7 gave an EC50 of 1.33 nM and a Max MFI of 33500 MFI.

As to B8, the EC50 turned out to be 1.87 nM and the Max MFI is 24900 MFI.

Regarding B9, the EC50 came out at 19.9 nM and the Max MFI was found to be 59700 MFI.

For B10, the EC50 came out at 2.03 nM and the Max MFI is 26900 MFI.

In a further assay the target is monkey GPC3-His protein (monkey). The experiment in a line: ELISA, monkey GPC3-His coated; antibody 0.02 nM.
The molecule B11 had an OD450 nm of 1.34.

The molecule B12 came in with an OD450 nm of 1.06.

Turning to B13, the OD450 nm turned out to be 0.08.

In turn, B14 displayed an OD450 nm of 0.877.

The molecule B15 displayed an OD450 nm of 1.22.

With B16, the OD450 nm was found to be 0.065.

As to B17, the OD450 nm was found to be 0.197.

On to B18, for which the OD450 nm was 0.491.

B19 yielded an OD450 nm of 0.924.

On to B20, for which the OD450 nm came to 0.078.

The molecule B21 displayed an OD450 nm of 0.687.

Another assay shares this target. Put plainly: ELISA, monkey GPC3-His coated; antibody 0.11 nM.
Molecule B11 yielded an OD450 nm of 2.31.

The molecule B12 returned an OD450 nm of 2.01.

As to B13, the OD450 nm was 0.226.

With B14, the OD450 nm was 2.13.

In the case of B15, the OD450 nm was 2.18.

As to B16, the OD450 nm came out at 0.137.

B17 displayed an OD450 nm of 0.605.

On to B18, for which the OD450 nm was 1.46.

With B19, the OD450 nm worked out at 2.1.

B20 yielded an OD450 nm of 0.227.

B21 returned an OD450 nm of 1.17.

A further assay shares this target. Put plainly: ELISA, monkey GPC3-His coated; antibody 0.53 nM.
Molecule B11 gave an OD450 nm of 2.65.

On to B12, for which the OD450 nm was 2.38.

As to B13, the OD450 nm is 1.05.

B14 showed an OD450 nm of 2.49.

Consider B15, for which the OD450 nm turned out to be 2.46.

For the molecule B16, the OD450 nm turned out to be 0.549.

For the molecule B17, the OD450 nm is 1.57.

Molecule B18 displayed an OD450 nm of 2.43.

The molecule B19 displayed an OD450 nm of 2.57.

With B20, the OD450 nm worked out at 0.917.

Molecule B21 had an OD450 nm of 1.25.

The next assay shares this target. Put plainly: ELISA, monkey GPC3-His coated; antibody 2.67 nM.
In turn, B11 registered an OD450 nm of 2.58.

For the molecule B12, the OD450 nm turned out to be 2.46.

With B13, the OD450 nm was 1.95.

In turn, B14 returned an OD450 nm of 2.75.

For the molecule B15, the OD450 nm amounted to 2.58.

For B16, the OD450 nm is 1.39.

B17 came in with an OD450 nm of 2.21.

B18 gave an OD450 nm of 2.6.

B19 registered an OD450 nm of 2.7.

Take B20: the OD450 nm came to 1.63.

As to B21, the OD450 nm was 1.32.

The target is the same in a further assay. The experiment in a line: ELISA, monkey GPC3-His coated; antibody 0.004 nM.
As for B11, the OD450 nm was 0.467.

On to B12, for which the OD450 nm was 0.358.

On to B13, for which the OD450 nm amounted to 0.057.

Molecule B14 gave an OD450 nm of 0.309.

In the case of B15, the OD450 nm was 0.418.

The molecule B16 displayed an OD450 nm of 0.055.

As for B17, the OD450 nm is 0.097.

B18 displayed an OD450 nm of 0.122.

B19: the OD450 nm turned out to be 0.34.

Molecule B20 came in with an OD450 nm of 0.058.

B21 showed an OD450 nm of 0.232.

Another assay has the same target. The experiment in a line: ELISA, monkey GPC3-His coated; antibody 13.33 nM.
B11 registered an OD450 nm of 2.62.

B12: the OD450 nm is 2.23.

In turn, B13 displayed an OD450 nm of 2.09.

In the case of B14, the OD450 nm was found to be 2.5.

B15: the OD450 nm amounted to 2.64.

Consider B16, for which the OD450 nm stood at 1.84.

The molecule B17 came in with an OD450 nm of 2.44.

B18 registered an OD450 nm of 2.54.

The molecule B19 registered an OD450 nm of 2.46.

The molecule B20 had an OD450 nm of 1.82.

B21 displayed an OD450 nm of 1.24.

A further assay has the same target. Put plainly: ELISA, monkey GPC3-His coated; antibody 66.66 nM.
Molecule B11 yielded an OD450 nm of 2.58.

For B12, the OD450 nm worked out at 2.39.

Consider B13, for which the OD450 nm is 2.18.

The molecule B14 displayed an OD450 nm of 2.77.

On to B15, for which the OD450 nm stood at 2.55.

B16 displayed an OD450 nm of 2.06.

B17 gave an OD450 nm of 2.36.

As for B18, the OD450 nm was found to be 2.56.

Turning to B19, the OD450 nm was found to be 2.69.

As to B20, the OD450 nm turned out to be 2.08.

Consider B21, for which the OD450 nm was 1.23.

A further assay has the same target. The experiment in a line: ELISA, monkey GPC3-His coated; antibody 0.0008 nM.
With B11, the OD450 nm was 0.188.

Molecule B12 had an OD450 nm of 0.129.

Consider B13, for which the OD450 nm is 0.044.

For B14, the OD450 nm is 0.111.

B15 showed an OD450 nm of 0.192.

As to B16, the OD450 nm is 0.047.

Molecule B17 displayed an OD450 nm of 0.067.

Consider B18, for which the OD450 nm came out at 0.085.

For B19, the OD450 nm was determined as 0.128.

On to B20, for which the OD450 nm came to 0.05.

On to B21, for which the OD450 nm was found to be 0.09.
